Assay results reported in patent US20230272113A1.

Target: human FLT3 on transfected CHO cells (human) (UniProt P36888)
Assay: FACS, scFv on CHO-human FLT3 cells pre-incubated with FLT3 ligand (competitor)

B1: FL-42 (scFv)
scFv: QVTLKESGPALVKPTETLTLTCTLSGFSLNNARMAVSWIRQPPGKCLEWLAHIFSNDEKSYSTSLKSRLTISKDTSKSQVVLTMTNMDPEDTATYYCARIVGYGTGWYGFFDYWGQGILVTVSSGGGGSGGGGSGGGGSDIQMTQSPSSLSASVGDRVTITCRASQGIRNDLAWYQQKPGKAPKRLIYAASSLQSGVPSRFSGSGSGTEFTLTISSLQPEDFATYYCLQHNSYPLTFGCGTKVEIK
  median [+ligand]/median [w/o ligand]*100: > 75%
